Experimental data taken from patent US20230050380A1 (CHIOME BIOSCIENCE, published 2023).

T1: full-length hCDCP1 with N-terminal c-Myc tag (expression vector GS01), on Ba/F3-hCDCP1 cells or … (human, UniProt Q9H5V8 30-836)
T1 construct: also called human CDCP1; hCDCP1 forced expression cells
T1 sequence: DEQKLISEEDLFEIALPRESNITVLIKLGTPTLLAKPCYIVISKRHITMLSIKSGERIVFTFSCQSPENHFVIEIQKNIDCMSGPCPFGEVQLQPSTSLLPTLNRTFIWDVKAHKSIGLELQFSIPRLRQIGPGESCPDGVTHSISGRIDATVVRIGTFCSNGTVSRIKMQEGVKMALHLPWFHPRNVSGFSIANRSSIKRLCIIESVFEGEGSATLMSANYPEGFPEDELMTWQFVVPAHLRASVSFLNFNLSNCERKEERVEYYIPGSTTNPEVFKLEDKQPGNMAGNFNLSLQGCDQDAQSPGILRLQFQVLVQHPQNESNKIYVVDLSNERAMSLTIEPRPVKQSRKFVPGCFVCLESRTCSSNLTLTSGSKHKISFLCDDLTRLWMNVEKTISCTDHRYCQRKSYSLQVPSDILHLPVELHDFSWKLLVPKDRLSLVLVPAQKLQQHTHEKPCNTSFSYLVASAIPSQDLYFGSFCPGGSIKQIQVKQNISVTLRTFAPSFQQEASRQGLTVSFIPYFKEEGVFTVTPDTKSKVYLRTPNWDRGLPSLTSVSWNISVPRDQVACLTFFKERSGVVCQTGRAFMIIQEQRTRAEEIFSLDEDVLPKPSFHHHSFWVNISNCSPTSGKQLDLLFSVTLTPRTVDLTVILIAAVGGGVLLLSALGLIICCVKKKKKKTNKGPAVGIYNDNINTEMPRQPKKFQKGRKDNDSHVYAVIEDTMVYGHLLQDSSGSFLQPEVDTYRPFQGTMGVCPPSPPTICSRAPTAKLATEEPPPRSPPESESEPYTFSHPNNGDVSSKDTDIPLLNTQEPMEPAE

T2: hCDCP1 expressed by PC3 cells and other human cancer cell lines (endogenous) (human, UniProt Q9H5V8 30-836)
T2 construct: Endogenous protein on cell lines; PC3 is said to express also the cleaved form; also called human CDCP1
T2 sequence: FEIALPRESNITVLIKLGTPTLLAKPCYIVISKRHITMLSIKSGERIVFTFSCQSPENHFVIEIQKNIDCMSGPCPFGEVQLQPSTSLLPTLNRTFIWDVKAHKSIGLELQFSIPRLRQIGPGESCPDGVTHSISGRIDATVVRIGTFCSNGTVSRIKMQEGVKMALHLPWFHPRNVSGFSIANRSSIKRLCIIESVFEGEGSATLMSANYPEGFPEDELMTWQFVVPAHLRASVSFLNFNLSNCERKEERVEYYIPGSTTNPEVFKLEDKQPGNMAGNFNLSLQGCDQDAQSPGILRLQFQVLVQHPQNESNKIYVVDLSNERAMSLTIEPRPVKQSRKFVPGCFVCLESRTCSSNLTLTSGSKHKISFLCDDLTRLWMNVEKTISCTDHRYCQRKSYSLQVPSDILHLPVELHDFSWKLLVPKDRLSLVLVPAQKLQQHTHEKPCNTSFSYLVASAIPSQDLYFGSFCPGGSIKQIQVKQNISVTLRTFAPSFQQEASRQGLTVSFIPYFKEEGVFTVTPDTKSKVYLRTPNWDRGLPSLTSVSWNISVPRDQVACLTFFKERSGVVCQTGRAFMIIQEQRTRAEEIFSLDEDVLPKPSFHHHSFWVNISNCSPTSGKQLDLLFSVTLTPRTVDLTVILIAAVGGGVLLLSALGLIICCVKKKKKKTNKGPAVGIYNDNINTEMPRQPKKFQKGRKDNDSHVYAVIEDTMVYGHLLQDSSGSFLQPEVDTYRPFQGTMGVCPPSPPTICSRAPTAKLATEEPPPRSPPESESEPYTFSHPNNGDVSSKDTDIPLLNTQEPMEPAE

T3: crab-eating macaque CDCP1 with N-terminal c-Myc tag (expression vector GS02), on crab-eating macaque … (crab-eating macaque (Macaca …, UniProt Q9H5V8 30-836 (human entry)))
T3 chain: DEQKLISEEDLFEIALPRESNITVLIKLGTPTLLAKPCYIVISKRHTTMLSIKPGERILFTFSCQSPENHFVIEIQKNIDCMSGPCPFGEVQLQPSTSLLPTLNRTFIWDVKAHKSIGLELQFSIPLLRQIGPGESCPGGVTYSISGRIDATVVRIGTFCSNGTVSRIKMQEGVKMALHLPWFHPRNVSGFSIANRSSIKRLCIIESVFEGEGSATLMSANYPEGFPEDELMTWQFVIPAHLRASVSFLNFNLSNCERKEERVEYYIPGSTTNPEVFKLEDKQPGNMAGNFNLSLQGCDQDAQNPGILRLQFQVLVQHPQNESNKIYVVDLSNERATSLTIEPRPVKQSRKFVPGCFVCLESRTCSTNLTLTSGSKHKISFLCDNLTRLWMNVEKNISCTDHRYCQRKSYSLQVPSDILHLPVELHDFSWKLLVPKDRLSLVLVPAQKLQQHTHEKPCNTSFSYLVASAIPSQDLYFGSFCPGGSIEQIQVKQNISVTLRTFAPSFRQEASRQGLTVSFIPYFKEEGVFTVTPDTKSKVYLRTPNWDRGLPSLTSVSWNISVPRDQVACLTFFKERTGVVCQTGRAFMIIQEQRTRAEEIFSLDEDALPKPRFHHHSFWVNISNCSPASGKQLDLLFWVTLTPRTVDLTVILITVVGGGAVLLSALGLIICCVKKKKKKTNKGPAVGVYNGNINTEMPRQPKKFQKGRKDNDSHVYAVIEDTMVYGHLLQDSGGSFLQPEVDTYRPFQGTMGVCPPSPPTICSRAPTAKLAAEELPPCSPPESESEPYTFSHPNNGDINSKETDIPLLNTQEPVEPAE


Experiments:
[1] = target: T1, full-length hCDCP1 with N-terminal …; experiment: flow cytometry on Ba/F3-hCDCP1 cells
[2] = target: T2, hCDCP1 expressed by PC3 cells and other …; experiment: cancer cells that express hCDCP1; method not given
[3] = target: T3, crab-eating macaque CDCP1 with …; experiment: flow cytometry on crab-eating macaque CDCP1-expressing CHO-K1 cells
Description: The hCDCP1-expressing CHO-K1 cells and the crab-eating macaque CDCP1-expressing CHO-K1 cells were exfoliated and dispersed using 0.25% trypsin/EDTA (Nacalai Tesque, Inc.), and were then reacted with various concentrations of individual mouse-human chimeric antibodies, namely, mh12A041HCori/LCori, mh14A025HCori/LCori, mh14A043HCori/LCori, mh14A055, mh14A063HCori/LCori, and mh14A091. Thereafter, the binding property of the antibodies was observed by flow cytometry (FIG. 9). As a result, these 6 antibodies all reacted with the crab-eating macaque CDCP1, and in particular, the 5 antibodies other than mh14A055 reacted with both the human CDCP1 and the crab-eating macaque CDCP1 at the same levels.

| Binder | binding result [1] | binding result [2] | binding result [3] |
| --- | --- | --- | --- |
| h14A063VH3/VL1 (antibody, human IgG1, kappa, humanized antibody, human IgG1/kappa constant regions) heavy: not shown light: EIVLTQSPATLSLSPGERATLSCRASESVDSYGNSFMHWYQQKPGQAPRLLIFLASNLESGVPARFSGSGSRTDFTLTISSLEPEDFAVYYCQQNNEDPWTFGGGTKVEIKRTVAAPSVFIFPPSDEQLKSGTASVVCLLNNFYPREAKVQWKVDNALQSGNSQESVTEQDSKDSTYSLSSTLTLSKADYEKHKVYACEVTHQGLSSPVTKSFNRGEC | binds |  |  |
| h14A063VH4/VL2 (antibody, human IgG1, kappa, V domains shown, humanized antibody, human IgG1/kappa constant regions; also called h14A063VH4/VL2-biotin (biotinylated form)) VH: EVQLVESGGGLVQPGGSLRLSCAASGFTFSSYTMSWVRQAPEKRLEWVAYISSGGGSTYYPDTVKGRFTISRDNAKNSLYLQMNSLRAEDTAVYYCARYDLGFAYWGQGTLVTVSS VL: EIVLTQSPATLSLSPGERATLSCRASESVDSYGNSFMHWYQQKPGQAPRLLIFLASNLESGVPARFSGSGSGTDFTLTISSLEPEDFAVYYCQQNNEDPWTFGGGTKVEIKR | binds |  |  |
| h14A063VH4/VL1 (antibody, human IgG1, kappa, V domains shown, humanized antibody, human IgG1/kappa constant regions; also called h14A063VH4/VL1-biotin (biotinylated form)) VH: EVQLVESGGGLVQPGGSLRLSCAASGFTFSSYTMSWVRQAPEKRLEWVAYISSGGGSTYYPDTVKGRFTISRDNAKNSLYLQMNSLRAEDTAVYYCARYDLGFAYWGQGTLVTVSS VL: EIVLTQSPATLSLSPGERATLSCRASESVDSYGNSFMHWYQQKPGQAPRLLIFLASNLESGVPARFSGSGSRTDFTLTISSLEPEDFAVYYCQQNNEDPWTFGGGTKVEIKR | binds |  |  |
| h14A063VH3/VL2 (antibody, human IgG1, kappa, humanized antibody, human IgG1/kappa constant regions) heavy: not shown light: EIVLTQSPATLSLSPGERATLSCRASESVDSYGNSFMHWYQQKPGQAPRLLIFLASNLESGVPARFSGSGSGTDFTLTISSLEPEDFAVYYCQQNNEDPWTFGGGTKVEIKRTVAAPSVFIFPPSDEQLKSGTASVVCLLNNFYPREAKVQWKVDNALQSGNSQESVTEQDSKDSTYSLSSTLTLSKADYEKHKVYACEVTHQGLSSPVTKSFNRGEC | binds |  |  |
| CUB4 antibody (antibody, human IgG1, kappa, V domains shown, also called CUB4-biotin (biotinylated form)) VH: EVQLVESGGGLVQPGGSLRLSCAASGFTFNSYGMSWVRQAPGKGLEWVATISSGGSYKYYVDSVKGRFTISRDNAKNSLYLQMNSLRAEDTAVYYCARHPDYDGVWFAYWGQGTLVTVSS VL: EIVLTQSPATLSLSPGERATMSCSVSSSVFYLHWYQQKPGQAPRLWIYDTSKLASGIPARFSGSGSGTDFTLTISSLEPEDFAVYYCQQWNSNPPTFGGGTKVEIKR |  | binds |  |
| mh14A063HCori/LCori (antibody, human IgG1, kappa, V domains shown, mouse-human chimeric antibody, human IgG1/kappa constant regions; also called mh14A063HCori/LCori-biotin (biotinylated form)) VH: EVQLQESGGGLVQPGGSLKLSCAASGFTFSSYTMSWVRQTPEKRLEWVAYISNGGGSTYYPDTVKGRFTISRDNAKNTLYLQMSSLKSEDTAMYYCARYDLGFAYWGQGTLVTVSS VL: NIVLTQSPASLAVSLGQRATISCRASESVDSYGNSFMHWYQQKPGQPPKLLIFLASNLESGVPARFSGSGSRTDFTLTIDPVEADDAATYYCQQNNEDPWTFGGGTNLEIKR | binds |  | binds |
| mh12A041HCori/LCori (antibody, human IgG1, kappa, V domains shown, mouse-human chimeric antibody, human IgG1/kappa constant regions; also called mh12A041HCori/LCori-biotin (biotinylated form)) VH: EVQLQESGPGILQPSQTLSLTCSFSGFSLSTSGMGVSWIRQPSGKGLEWLAHIYWDDDKRYNPSLKSRLTISKDTSSNQVFLKITSVDTADTATYYCARSGSYYGSSLDCWGQGTTLTVSS VL: DVLMTQTPLSLPVSLGDQASISCRSSQSIVHSNGNTYLEWYLQKPGQSPKLLIYKVSNRFSGVPDRFSGSGSGTDFTLKISRVEAEDLGVYYCFQGSHVPWTFGGGTKLEIKR | binds |  | binds |
| mh14A025HCori/LCori (antibody, human IgG1, kappa, V domains shown, mouse-human chimeric antibody, human IgG1/kappa constant regions; also called mh14A025HCori/LCori-biotin (biotinylated form)) VH: EVQLQESGAELVRPGALVKLSCKASGFNIKDYYMHWVKQRPEQGLEWIGWIDPENGNTIYDPKFQGKASITADTSSNTAYLQLSSLTSEDTAVYYCGGLLYAMDYWGQGTSVTVSS VL: DIQMTQTTSSLSASLGDRVTISCRASQDISNYLNWYQQKPDGTVKLLIYFTSRLHSGVPSRFSGSGSGTDYSLTISNLEQEDIATYFCQQGNTLPRTFGGGTKLEIRR | binds |  | binds |
| 25A11 antibody (antibody, human IgG1, kappa, V domains shown, also called 25A11 biotin; 25A11-biotin (biotinylated form)) VH: QVQLQQPGAELVKPGASVKMSCKASGYTFTSYYMYWVKQRPGQGLEWIGEINPSHGGTNFNEKFKNKATLTVDKSSSTVYMQLSSLTSEDSAVYYCTRGGNYPYFAMDYWGQGTSVTVSS VL: DIQMTQTTSSLSASLGDRVTISCRASQDISNYLNWYQQKPDGTVKLLIYYTSRLHSGVPSRFSGSGSGTDYSLTISNLEQEDIATYFCQQGNTLPWTFGGGTKLEIKR |  | binds |  |
| mh14A043HCori/LCori (antibody, human IgG1, kappa, V domains shown, mouse-human chimeric antibody, human IgG1/kappa constant regions; also called mh14A043HCori/LCori-biotin (biotinylated form)) VH: EVQLQESGAELVRPGALVKLSCKASGFNIKDYYMNWVKQRPEQGLEWIGWIDPENGNTIYDPKFQGKASITADTSSNTAYLQLSSLTSEDTAVYYCYGSSYRFTYWGQGTLVTVSS VL: QIVLIQSPALMSASPGEKVTMTCSASSSVSYMYWYQQKPRSSPKPWIYLTSNLASGVPARFSGSGSGTSYSLTISSMEAEDAATYYCQQWSSNPFTFGSGTKLEIKR | binds |  | binds |
